Data taken from paper PMC2913470.

Target: T1, p82 (r82; Teb1-like RPA1-related telomerase holoenzyme subunit p82) (Tetrahymena thermophila, UniProt D2CVN6 1-701)
T1 sequence: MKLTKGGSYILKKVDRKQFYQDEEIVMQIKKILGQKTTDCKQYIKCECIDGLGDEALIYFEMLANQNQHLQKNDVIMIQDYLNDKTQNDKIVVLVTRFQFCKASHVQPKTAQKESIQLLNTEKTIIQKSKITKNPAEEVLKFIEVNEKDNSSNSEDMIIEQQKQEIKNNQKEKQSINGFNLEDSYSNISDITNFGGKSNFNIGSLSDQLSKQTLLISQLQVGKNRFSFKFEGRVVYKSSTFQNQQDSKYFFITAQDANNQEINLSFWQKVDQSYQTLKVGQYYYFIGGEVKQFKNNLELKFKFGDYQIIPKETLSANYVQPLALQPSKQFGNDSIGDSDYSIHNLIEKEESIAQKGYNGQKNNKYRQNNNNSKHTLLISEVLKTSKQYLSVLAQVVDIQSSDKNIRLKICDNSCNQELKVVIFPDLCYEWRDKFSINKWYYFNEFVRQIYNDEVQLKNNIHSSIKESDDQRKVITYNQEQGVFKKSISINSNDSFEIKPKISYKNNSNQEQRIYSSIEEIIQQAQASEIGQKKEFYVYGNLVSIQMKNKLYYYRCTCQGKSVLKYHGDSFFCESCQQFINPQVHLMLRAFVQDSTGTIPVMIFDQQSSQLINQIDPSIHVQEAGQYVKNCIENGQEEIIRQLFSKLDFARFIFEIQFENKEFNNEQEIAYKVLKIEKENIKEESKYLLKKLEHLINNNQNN
Experiment: EMSA

B1: dsTelo3 (dsDNA)
DNA 1: CCCCAACCCCAACCCCAA
DNA 2: TTGGGGTTGGGGTTGGGG
B1: no binding.
